Among the data in PMC12586598 (2025) are Kd and koff values, retold here.

What all share (test): SPR
A general note: SPR reads the build-up and loss of mass on a sensor chip optically.

Test [1] concerns the target long-acting C5a-blocking cyclic peptide drug Cp1 (head-tail cyclization of the linear peptide K1).
Test [2] addresses K4.
For test [3], the target named is K3.
In test [4] the target is linear peptide K1.
Test [5] deals with K2.

A word on the Kd: it is the constant that tells how readily two partners part at equilibrium. Usually koff stands for a measure of how fast the partners let go of each other.

B1: human C5a protein (ligand)
chain: TLQKKIEEIAAKYKHSVVKKCCYDGACVNNDETCEQRAARISLGPRCIKAFTECCVVASQLRANISHKDMQLGR
In test [1], B1 had a Kd of 7.41 µM and a koff of 0.395 s⁻¹.

B2: mouse C5 (natural protein)
chain 1: QEQTYVISAPKILRVGSSENVVIQVHGYTEAFDATLSLKSYPDKKVTFSSGYVNLSPENKFQNAALLTLQPNQVPREESPVSHVYLEVVSKHFSKSKKIPITYNNGILFIHTDKPVYTPDQSVKIRVYSLGDDLKPAKRETVLTFIDPEGSEVDIVEENDYTGIISFPDFKIPSNPKYGVWTIKANYKKDFTTTGTAYFEIKEYVLPRFSVSIELERTFIGYKNFKNFEITVKARYFYNKVVPDAEVYAFFGLREDIKDEEKQMMHKATQAAKLVDGVAQISFDSETAVKELSYNSLEDLNNKYLYIAVTVTESSGGFSEEAEIPGVKYVLSPYTLNLVATPLFVKPGIPFSIKAQVKDSLEQAVGGVPVTLMAQTVDVNQETSDLETKRSITHDTDGVAVFVLNLPSNVTVLKFEIRTDDPELPEENQASKEYEAVAYSSLSQSYIYIAWTENYKPMLVGEYLNIMVTPKSPYIDKITHYNYLILSKGKIVQYGTREKLFSSTYQNINIPVTQNMVPSARLLVYYIVTGEQTAELVADAVWINIEEKCGNQLQVHLSPDEYVYSPGQTVSLDMVTEADSWVALSAVDRAVYKVQGNAKRAMQRVFQALDEKSDLGCGAGGGHDNADVFHLAGLTFLTNANADDSHYRDDSCKEIL
chain 2: NLHLLRQKIEEQAAKYKHSVPKKCCYDGARVNFYETCEERVARVTIGPLCIRAFNECCTIANKIRKESPHKPVQLGRIHIKTLLPVMKADIRSYFPESWLWEIHRVPKRKQLQVTLPDSLTTWEIQGIGISDNGICVADTLKAKVFKEVFLEMNIPYSVVRGEQIQLKGTVYNYMTSGTKFCVKMSAVEGICTSGSSAASLHTSRPSRCVFQRIEGSSSHLVTFTLLPLEIGLHSINFSLETSFGKDILVKTLRVVPEGVKRESYAGVILDPKGIRGIVNRRKEFPYRIPLDLVPKTKVERILSVKGLLVGEFLSTVLSKEGINILTHLPKGSAEAELMSIAPVFYVFHYLEAGNHWNIFYPDTLSKRQSLEKKIKQGVVSVMSYRNADYSYSMWKGASASTWLTAFALRVLGQVAKYVKQDENSICNSLLWLVEKCQLENGSFKENSQYLPIKLQGTLPAEAQEKTLYLTAFSVIGIRKAVDICPTMKIHTALDKADSFLLENTLPSKSTFTLAIVAYALSLGDRTHPRFRLIVSALRKEAFVKGDPPIYRYWRDTLKRPDSSVPSSGTAGMVETTAYALLASLKLKDMNYANPIIKWLSEEQRYGGGFYSTQDTINAIEGLTEYSLLLKQIHLDMDINVAYKHEGDFHKYKVTEKHFLGRPVEVSLNDDLVVSTGYSSGLATVYVKTVVHKISVSEEFCSFYLKIDTQDIEASSHFRLSDSGFKRIIACASYKPSKEESTSGSSHAVMDISLPTGIGANEEDLRALVEGVDQLLTDYQIKDGHVILQLNSIPSRDFLCVRFRIFELFQVGFLNPATFTVYEYHRPDKQCTMIYSISDTRLQKVCEGAACTCVEADCAQLQAEVDLAISADSRKEKACKPETAYAYKVRITSATEENVFVKYTATLLVTYKTGEAADENSEVTFIKKMSCTNANLVKGKQYLIMGKEVLQIKHNFSFKYIYPLDSSTWIEYWPTDTTCPSCQAFVENLNNFAEDLFLNSCE
Regarding B2, in test [1], the Kd worked out at 0.712 µM and the koff was determined as 0.0745 s⁻¹.

B3: mouse C5a protein (ligand)
chain: NLHLLRQKIEEQAAKYKHSVPKKCCYDGARVNFYETCEERVARVTIGPLCIRAFNECCTIANKIRKESPHKPVQLGR
Turning to B3, the dissociation constant Kd worked out at 2.38 µM in test [2]; 7.12 µM in test [3]; 2.85 µM in test [4]; 53.6 µM in test [5]; 5.63 µM in test [1]. Besides, the koff turned out to be 0.0299 s⁻¹ in test [2], 0.392 s⁻¹ in test [3], 0.00586 s⁻¹ in test [4] and 0.00405 s⁻¹ in test [5].

B4: mouse C5a-desArg (ligand)
chain: B3 chain
B4 had an equilibrium dissociation constant (Kd) in test [1] of 3.58 µM.
